Assay results as given in the supplement of paper PMC9170038.

Test system: MS2 coat protein
Test: apparent KD of MS2 coat protein; designed switch direction (-1 OFF switch, 1 ON switch): 1; higher = weaker reporter binding
Procedure, shortened: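 RNA switches sharing common flanks were transcribed by stalled E. coli RNA polymerase on Illumina chips. A doubling series of SNAP-549-labelled MS2 coat protein, from 0.7 or 1.5 nM to 3 µM, was applied in Tris-HCl pH 7.5 buffer with KCl, MgCl2, BSA, DTT, tRNA and Tween-20. Each step lasted 0.8–1.5 h at the bottom of the series and 10–20 min at the top. Normalised cluster fluorescence was curve-fitted, giving apparent KD as the per-design median over clusters.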

[1] = input ligand: microRNA oligo, concentration not stated
[2] = Eterna round: R95, input ligand: FMN 200 uM
[3] = Eterna round: R95, input ligand: microRNA oligo, concentration not stated
[4] = Eterna round: R95, input ligand: none

| Sequence | apparent KD of MS2 coat protein (input ligand: FMN 200 uM) [nM] | apparent KD of MS2 coat protein [1] [nM] | apparent KD of MS2 coat protein (input ligand: none) [nM] | apparent KD of MS2 coat protein [2] [nM] | apparent KD of MS2 coat protein [3] [nM] | apparent KD of MS2 coat protein [4] [nM] |
| --- | --- | --- | --- | --- | --- | --- |
| UAUGAAUUGCAAGGAUAUUGAUAACAUGAGGAUCACCCAUGUAAUUGUUCGAGUUAGAUUAGUUACAAGAAGGUGCUAUUGUUU [JR_SSNG2_Sub038] (Eterna round: R96, puzzle: Same State NG 2) | 350 | 459 | 337 |  |  |  |
| GGUAGGUUACUACCAGACAUGAGGAUCACCCAUGUAAAUGGGAAGGAUAUGGUACCGUUUCGGUACCAGAAGGUCCUAAGUGAG [JL SSNG3 1.48] (Eterna round: R96, puzzle: Same State NG 3) | 667 | 367 | 2280 |  |  |  |
| UACGCGAGAGGAGGAUAUGCAGAGGAUCACCCUGUAGAAGGCCUCAUAAGGAGGAUAUGCAGAGGAUCACCCUGUAGAAGGCCU [pwkr ssNG DX.22] (Eterna round: R96, puzzle: Same State NG 1) | 345 | 67.9 | 129 |  |  |  |
| GACCGCGAGGAAGGAUAUGGAGCCUUAUUGGCUCCAGAAGGUCCAUAAAGGACAUGAGGAUCACCCAUGUGGGUUGGAGCGGUC [Fiskers NG1ss - 0] (Eterna round: R96, puzzle: Same State NG 1) | 32.8 | 96.2 | 176 |  |  |  |
| AGAGAACAUGAGGAUCACCCAUGUAGGAUGGGCAUAGGAUAUAGAAGGAUGAAGGAGAAACUAGAAGGAUGAUGGA [JR_SS1_Sub076] (puzzle: Same State 1) |  |  |  | 107 | 145 | 235 |
| GGAAUAUUUACAGGAUAUGAUUUGUAAAUUCGAUCAGAAGGGUGGAUGUCUUACACGGUUUGUUACAUGAGGAUCACCCAUGUC [SameState NG1 #12] (Eterna round: R96, puzzle: Same State NG 1) | 452 | 253 | 376 |  |  |  |
| AGCUAUCGCGUACGAUAGCUGAAGCGUGUACAUGAGGAUCACCCAUGUCAUGUGCAAGCUUUUUGCUCGUCUUAUUG [JL-shm-2.29 JL mod] (puzzle: Sensor for hsa-mir-208a) |  |  |  | 353 | 14.8 | 459 |
| GGAAUAUUCACAGGAUAUGAGUUGUAAAGUGGAUCAGAAGGGUGGGUGUUUUGCACGGUGUGUUACAUGAGGAUCACCCAUGUU [SameState NG1 #23] (Eterna round: R96, puzzle: Same State NG 1) | 82.4 | 241 | 418 |  |  |  |
| GGAGCCAGCACCGAGGAUAUUCAUAUUAAAACAUGAGGAUCACCCAUGUAGGCCAGAAGGCCUUGGGAGAAGGCGGACUGGCUCG [Xeonanis - 11] (puzzle: Same State 2) |  |  |  | 28.5 | 221 | 976 |
| GAUUCACAUGAGGAUCACCCAUGUCGUUAUAUGGGAGGAUAUACGUGGACCGUAGUCCGCGUAGAAGGCCUAAUUG [JL-ss1-3.25 janelle mod] (puzzle: Same State 1) |  |  |  |  | 303 |  |
| AAGGUGCAGGUACAGGAUAUGUUGCUCGUAACAUGAGGAUCACCCAUGUACCUAUGAGAUUAAAUGCAGAAGGGUGCACACCAAA [Mat - Same State 2 - Mod of UCT - D91] (puzzle: Same State 2) |  |  |  | 73 | 484 | 302 |
| GGAGCCGGCACUGAGGAUAUUCAUAUUAAAACAUGAGGAUCACCCAUGUAGGCCAGAAGGCCUUGGGAGAAGGCAGGUCGGCUCG [Arinin] (Eterna round: R96, puzzle: Same State 2) | 20 | 188 | 283 |  |  |  |
| CUUUUUAGUGCAGGAUAUGAUCAACAUGAGGAUCACCCAUGUGGCGUUGUGAGUAGGGAGAGUGAUCAGAAGGGCGUCUCCGCG [SS-NG2-LRO11] (Eterna round: R96, puzzle: Same State NG 2) | 72 | 36.1 | 59.9 |  |  |  |
| ACAUGAGAGAUAGGAUAUGUUGUACCUACAUGUGACAUGAGGAUCACCCAUGUGGUAAGUAUGAGACAGAAGGAUCAGAUAUGU [Equivalence 31 - Jieux - Same State NG 2] (Eterna round: R96, puzzle: Same State NG 2) | 20.8 | 41.4 | 74 |  |  |  |
| CCGUAGAUGGUAGGAUAUGGAGCCUUAUUGGCUCCAGAAGGAUCGAAAACAUGAGGAUCACCCAUGUCGGCGGUCAAUAGACCG [Eli NG1ss - 84] (Eterna round: R96, puzzle: Same State NG 1) | 21.8 | 43.1 | 34.1 |  |  |  |
| GUGGUCAGACAUGAGGAUCACCCAUGUGGAAUAAAUAAGGGACAGGAUAUCCAAUAUAGGAUAUAGGAGAAGGGUUGGUUGGUG (Eterna round: R96, puzzle: Same State NG 3) | 78.9 | 64.5 | 73.9 |  |  |  |
| GUCGGUCUGUCGUGCUGAGGUGAUAGUUAACAUGAGGAUCACCCAUGUUGCUGUCGGGUCGUUGGGAGUUUUCUUCG [Modxample 118 - Jieux - Sensor for bsa-mir-208a] (Eterna round: R96, puzzle: Sensor for hsa-mir-208a) | 19.1 | 15.4 | 22.5 |  |  |  |
| GGUCCCUACGCACAGGAUAUUCUUUUGGCAACAUGAGGAUCACCCAUGUGUGCCGAUCAUGGUUAGAAGAAGGGUGGUAGGGACC [Usisus] (puzzle: Same State 2) |  |  |  | 9.87 | 12.9 | 13.5 |
| CUCAAAACAAGUUGCAGUGUUCGUCUUUAACAUGAGGAUCACCCAUGUAAUAGCCUGGUGGAAGCGCUCGGGCCACC [Qurabila] (puzzle: Sensor for hsa-mir-208a) |  |  |  | 23.4 | 15.6 | 25.1 |
| CCGAUGCUUAUAAACAUGAGGAUCACCCAUGUGAGGACACAUGAGGAUAUGCAGGUCAAAGACUUGCAGAAGGCAUAGCGUCGG [JL SSNG3 3.89] (Eterna round: R96, puzzle: Same State NG 3) | 40.7 | 158 | 305 |  |  |  |
| GAGUAGUUGGGAGGAUAUCGAUUGUUAUAGAAUCGAGAAGGUUCUAACAUGAGGAUCACCCAUGUAGGACUAUUCCUGUGUAUC [Parity 74 - Jieux - Same State NG 1] (Eterna round: R96, puzzle: Same State NG 1) |  | 37.3 |  |  |  |  |
| AUUGGGUAACGAGGAUAUCGUUUUUGUUUUUUUCGAGAAGGCGUUAUAGUUUCUUUCUAUUGUUACAUGAGGAUCACCCAUGUU [JR_SSNG1_Sub053] (Eterna round: R96, puzzle: Same State NG 1) | 15.8 | 16.2 | 16.5 |  |  |  |
| AGUGAACAUGAGGAUCACCCAUGUGAGAGAAGUGUAGGAUAUGUGAGGAGCAGAGGAGGGACAGAAGGACAUGGAG [JR_SS!_Sub074] (puzzle: Same State 1) |  |  |  | 32.1 | 38 | 51.8 |
